The source of these data is US7691590B2, “Reducing myelin-mediated inhibition of axon regeneration” (Children's Medical Center Corporation, priority 2001, dated 2010).

For data set [1], the system named is growth cones of E13 chick DRG neurons. The data set can be described thus: Growth cone collapse assay with E13 chick DRG explants. It counts as cell-based. As to conditions: for EC50: E13 chick DRG growth cones, read-out: effective concentration for half-maximal response (EC50), growth cone collapse; for growth cone collapsing activity after PI-PLC treatment of the neurons: PI-PLC pre-incubation. From the text:
OMgp is a Physiological Nogo Receptor Ligand and Inhibitor of Neurite Outgrowth. To examine whether any GPI-linked proteins in CNS myelin may act as inhibitors of neurite outgrowth, we treated purified bovine white matter myelin with phosphatidylinositol-specific phospholipase C (PI-PLC) and examined the released proteins for their ability to alter growth cone morphology in a growth cone collapse assay using embryonic day 13 chick dorsal root ganglia (E13 DRG)^6,9,10. […] Since the size of this band was similar to that of a previously identified CNS myelin protein OMgp^11,12, we used antibodies specific for OMgp to detect enrichment of cleaved OMgp in the PI-PLC supernatants by Western blot. […] Next, we examined whether purified recombinant OMgp protein was able to act as an inhibitor of neurite outgrowth in two well-established in vitro assays, the growth cone collapse^6,9,13 and the neurite outgrowth assays^3-7,9.
Growth Cone Collapse and Neurite Outgrowth Assays. Chick E13 DRG and E7 retina were isolated and cultured as described previously^9,10. DRG explants cultured overnight were used for growth cone collapse assays. To assess the effects of PI-PLC treatment, cultures were pre-incubated with 2 U/ml PI-PLC for 30 min prior to treatment with individual test proteins for an additional 30 min. To express NgR in E7 retinal ganglion neurons, we infected the explants with recombinant HSV for 24 hr. After incubation with each test protein for 30 min, retinal explants were fixed in 4% paraformaldehyde and 15% sucrose. Infection of HSV-LacZ was detected by a standard b-galatosidase staining protocol^20. FLAG-NgR expression was detected by incubating paraformaldehyde-fixed cultures with M2 anti-FLAG antibody (Sigma). Bound antibody was detected by incubation with AP-conjugated […] IgG second antibody and reaction with NBT and BCIP (Vector labs). Growth cone collapse was quantified only in those positively stained for b-galatosidase or immunoreactive for the FLAG epitope.

The target of data set [2] is T1, GST-NgR (extracellular domain of NgR) (Homo sapiens, UniProt Q9BZR6).
T1 construct: a GST fusion protein containing the entire extracellular domain of NgR (GST-NgR); made in house; OM-his made in COS-7 cells
T1 sequence (Q9BZR6 27-447 limits assumed): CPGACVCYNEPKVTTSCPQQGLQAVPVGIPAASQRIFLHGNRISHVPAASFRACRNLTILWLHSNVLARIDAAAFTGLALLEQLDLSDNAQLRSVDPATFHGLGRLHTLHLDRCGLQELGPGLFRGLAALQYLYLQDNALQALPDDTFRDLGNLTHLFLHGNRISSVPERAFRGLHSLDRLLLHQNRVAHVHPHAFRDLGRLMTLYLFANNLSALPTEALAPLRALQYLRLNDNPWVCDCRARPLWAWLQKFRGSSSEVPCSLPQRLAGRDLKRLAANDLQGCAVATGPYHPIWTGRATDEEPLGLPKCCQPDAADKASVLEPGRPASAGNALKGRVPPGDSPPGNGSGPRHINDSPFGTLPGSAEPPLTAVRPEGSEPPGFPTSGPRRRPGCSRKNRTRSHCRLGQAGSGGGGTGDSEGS
The data set can be described thus: Co-precipitation with GST-NgR on glutathione-Agarose beads. It counts as binding. As to conditions: for competition for binding to NgR: cell surface binding and co-precipitation assay. The procedure:
To investigate the mechanisms by which OMgp inhibits neurite outgrowth, we used an expression cloning strategy^9,13,16 to identify cell surface OMgp-binding proteins. […] From pools of an adult human brain cDNA expression library, we isolated two cDNAs that encoded OMgp-binding proteins. […] We then established a CHO cell line stably expressing the NgR and determined the binding affinity of expressed NgR for AP-OM as 5 nM, similar to what had been determined for Nogo-66 (7 nM, ref. 9). […] We next performed co-precipitation experiments by incubating GST or a GST fusion protein containing the entire extracellular domain of NgR (GST-NgR) with OM-his alone or in the presence of AP or AP-66 protein. […] We next determined which domain(s) of OMgp was responsible for binding to NgR. Like NgR, OMgp is also a GPI-linked protein containing a leucine-rich repeat (LRR) domain. […] In addition, the C-terminal domain with serine-threonine repeats (AP-S/T) alone was also able to bind, though less strongly, to NgR expressing cells.
In co-precipitation experiments, 2 mg GST or GST-NgR were first immobilized to glutathione-Agarose beads and the beads were further incubated with or without 1 mg OM-his in the presence of 2 mg of AP or AP-66 at 4° C. for 2 hr. After extensive washing, the bound proteins were resolved with SDS-PAGE and detected by Western blotting.

In data set [3] the test system is cerebellar granule neurons (CGN). Put plainly: Neurite outgrowth assay with cerebellar granule neurons. It counts as cell-based. As to conditions: P7-9 rat CGN. The text has this: To deplete OMgp, myelin was first solublized with 1% octylglucoside and the resultant extract was passed twice through columns with PNA-Agarose (Vector Laboratories) or control Agarose beads as described previously^12. The OMgp-enriched fraction was obtained by eluting the PNA-Agarose column with buffer containing 0.5 M D-galactose. As a significant portion of OMgp co-fractionated with Nogo-A in anion exchange columns^12, we enriched MAG or Nogo-A from myelin by applying the flow-through fractions from the PNA-Agarose columns onto a Q-Sepharose (Sigma) column^15. The column was then eluted stepwise with equal amount of buffers containing 0.15 M (MAG-enriched), 0.45 M (Nogo-A enriched), or 1.0 M NaCl^15. Aliquots of individual fractions were tested for their inhibitory activity in the neurite outgrowth assay as described previously^15,16,21.
Neurite outgrowth assays were performed as described previously^15,21. Briefly, P7-9 rat CGNs were dissected and then plated at a density of 1×10^5 cells per well. The cells were cultured for 24 hr prior to fixation with 4% paraformaldehyde and staining with a neuronal specific anti-b-tubulin antibody (TuJ-1, Covance). Quantification of neurite length and statistical analysis were performed as described previously^22.

For data set [4], the system named is chick E7 retinal ganglion neurons (RGN) expressing human NgR. The data set can be described thus: Growth cone collapse in E7 retinal ganglion neurons expressing FLAG-NgR (HSV infection). It counts as cell-based. The conditions noted are these: E7 RGN infected with HSV FLAG-NgR. The text has this:
To assess whether NgR is capable of mediating OMgp-induced inhibitory activity on neurite outgrowth, we next took a gain-of-function approach to examine whether expression of NgR was able to confer OMgp-responsiveness to otherwise insensitive neurons. It has been shown previously that chick E7 retinal ganglion neurons (RGN) are insensitive to Nogo-66, but that introduction of exogenous NgR in these neurons rendered their growth cones to be responsive to Nogo-66^9. Using the same strategy, we made a recombinant herpes simplex virus (HSV) that drives expression of a FLAG-tagged full-length human NgR (FLAG-NgR) in infected neurons. Upon infection, 80% of the E7 RGNs expressed the FLAG-NgR protein as assessed by immunocytochemistry with an anti-FLAG antibody. […] Furthermore, the growth cones of NgR-expressing axons also become collapsible by OMgp.
Growth Cone Collapse and Neurite Outgrowth Assays. […] Infection of HSV-LacZ was detected by a standard b-galatosidase staining protocol^20. FLAG-NgR expression was detected by incubating paraformaldehyde-fixed cultures with M2 anti-FLAG antibody (Sigma). Bound antibody was detected by incubation with AP-conjugated […] IgG second antibody and reaction with NBT and BCIP (Vector labs). Growth cone collapse was quantified only in those positively stained for b-galatosidase or immunoreactive for the FLAG epitope.

Where “and” joins values, the source holds several entries; their conditions need not be identical. Identical values can stand only once.

B1: AP-66: alkaline phosphatase fusion protein containing the 66 amino acid extracellular domain of Nogo-A (protein)
chain: RIYKGVIQAIQKSDEGHPFRAYLESEVAISEELVQKYSNSALGHVNCTIKELRRLFLVDDLVDSLK
modifications: also: fused to alkaline phosphatase
notes: alkaline phosphatase fusion protein containing the 66 amino acid extracellular domain of Nogo-A
In the case of B1, the EC50 in data set [1] was found to be 2.3 nM. The “competition for binding to NgR” value in data set [2] is on record as “competed for binding to NgR”.

B2: OM-his: purified recombinant polyhistidine-tagged mouse OMgp protein (amino acids 23-392) expressed in COS-7 cells (protein)
chain: LCICPLQCTCTERHRHVDCSGRNLTTLPPGLQENIIHLNLSYNHFTDLHNQLTPYTNLRTLDISNNRLESLPAQLPRSLWNMSAANNNIKLLDKSDTAYQWNLKYLDVSKNMLEKVVLIKNTLRSLEVLNLSSNKLWTVPTNMPSKLHIVDLSNNSLTQILPGTLINLTNLTHLYLHNNKFTFIPEQSFDQLLQLQEITLHNNRWSCDHKQNITYLLKWVMETKAHVIGTPCSKQVSSLKEQSMYPTPPGFTSSLFTMSEMQTVDTINSLSMVTQPKVTKTPKQYRGKETTFGVTLSKDTTFSSTDRAVVAYPEDTPTEMTNSHEAAAATLTIHLQDGMSSNASLTSATKSPPSPVTLSIARGMPNNFSE
modifications: left off: small tags and cut ends
notes: purified recombinant polyhistidine-tagged mouse OMgp protein (amino acids 23-392) expressed in COS-7 cells
Take B2: the “growth cone collapsing activity” value in data set [1] (E13 chick DRG) is “induced the collapse of growth cones”. Further, the EC50 in data set [1] is ~1.5 nM and 1.5 nM. Also, in data set [3], the “inhibition of neurite outgrowth” value is “inhibited neurite outgrowth”. For the same molecule, the “competition for binding to NgR” value in data set [2] was “competed for binding to NgR”. Moreover, in data set [2] (co-precipitation, control GST did not bind), the “direct binding to GST-NgR” value is “bound”.

B3: OMgp: oligodendrocyte-myelin glycoprotein, GPI-anchored CNS myelin protein (protein, UniProt P23515 25-417, looked up)
Oligodendrocyte-myelin …: ICPLQCICTERHRHVDCSGRNLSTLPSGLQENIIHLNLSYNHFTDLHNQLTQYTNLRTLDISNNRLESLPAHLPRSLWNMSAANNNIKLLDKSDTAYQWNLKYLDVSKNMLEKVVLIKNTLRSLEVLNLSSNKLWTVPTNMPSKLHIVDLSNNSLTQILPGTLINLTNLTHLYLHNNKFTFIPDQSFDQLFQLQEITLYNNRWSCDHKQNITYLLKWMMETKAHVIGTPCSTQISSLKEHNMYPTPSGFTSSLFTVSGMQTVDTINSLSVVTQPKVTKIPKQYRTKETTFGATLSKDTTFTSTDKAFVPYPEDTSTETINSHEAAAATLTIHLQDGMVTNTSLTSSTKSSPTPMTLSITSGMPNNFSEMPQQSTTLNLWREETTTNVKTPLPS
B3: the “growth cone collapsing activity after PI-PLC treatment of the neurons” value in data set [1] (E13 chick DRG) is “abolished”. Besides, the “growth cone collapse response in NgR-expressing neurons” value in data set [4] is given as “collapsible”.

B4: Semaphorin 3A: control growth cone collapsing protein acting through neuropilin-1 and plexin receptors (protein, UniProt Q14563 21-771, looked up)
Semaphorin-3A: NYQNGKNNVPRLKLSYKEMLESNNVITFNGLANSSSYHTFLLDEERSRLYVGAKDHIFSFDLVNIKDFQKIVWPVSYTRRDECKWAGKDILKECANFIKVLKAYNQTHLYACGTGAFHPICTYIEIGHHPEDNIFKLENSHFENGRGKSPYDPKLLTASLLIDGELYSGTAADFMGRDFAIFRTLGHHHPIRTEQHDSRWLNDPKFISAHLISESDNPEDDKVYFFFRENAIDGEHSGKATHARIGQICKNDFGGHRSLVNKWTTFLKARLICSVPGPNGIDTHFDELQDVFLMNFKDPKNPVVYGVFTTSSNIFKGSAVCMYSMSDVRRVFLGPYAHRDGPNYQWVPYQGRVPYPRPGTCPSKTFGGFDSTKDLPDDVITFARSHPAMYNPVFPMNNRPIVIKTDVNYQFTQIVVDRVDAEDGQYDVMFIGTDVGTVLKVVSIPKETWYDLEEVLLEEMTVFREPTAISAMELSTKQQQLYIGSTAGVAQLPLHRCDIYGKACAECCLARDPYCAWDGSACSRYFPTAKRRTRRQDIRNGDPLTHCSDLHHDNHHGHSPEERIIYGVENSSTFLECSPKSQRALVYWQFQRRNEERKEEIRVDDHIIRTDQGLLLRSLQQKDSGNYLCHAVEHGFIQTLLKVTLEVIDTEHLEELLHKDDDGDGSKTKEMSNSMTPSQKVWYRDFMQLINHPNLNTMDEFCEQVWKRDRKQRRQRPGHTPGNSNKWKHLQENKKGRNRRTHEFERAPRSV
Take B4: the “growth cone collapsing activity after PI-PLC treatment of the neurons” value in data set [1] (E13 chick DRG) is “not affected”.
